Results published in article PMC1343528 (The Journal of Cell Biology, 2005).

Target: calmodulin, purified (UniProt P0DP23 1-149)
Assay: pull-down

binding result: binds
B1: GST fusion of α1C aa 1581–1690 with EEDAAA in place of TVGKFY (Mut6) (domain or fragment)
chain: not shown
